Patent US20070275001A1, “Rational Design and Engineering of Proteins and Peptides for Immunomodulation” (Arizona Board of Regents, priority 2004, published 2007)
No end group written: not given here.

Legend:
[1] = corresponding value for the original scaffold protein; cited from earlier work
[2] = Chemical denaturation with guanidinium hydrochloride monitored by CD at 222 nm (thermodynamic stability); type: physicochemical
Procedure: The thermodynamic stability of the proteins was assessed by chemical denaturation studies, in which the CD signal at 222 nm was monitored at increasing concentrations of denaturant agent, guanidinium hydrochloride (FIG. 7B). A 1 cm path length rectangular quartz cell was used. The cell holder was temperature controlled at 25° C. The buffer was 10 mM potassium phosphate, pH 7.0. The bandwidth was 1.00 nm. At each GdnHCl concentration, cell chamber was equilibrated for 6 minutes, then data were collected. The curve is described by the equation: ΔGobs=ΔGH2O+m[GdnHCl] in which ΔGobs is the free energy for the two state unfolding equilibrium observed at a given concentration of GdnHCl, ΔGH2O is the free energy of denaturation extrapolated to zero GdnHCl concentration, m is a constant that provide a measure of the cooperativity of the process.
The resulting sigmoidal curve was analyzed to extrapolate the free energy of folding, ΔG, estimated to be −4.2 Kcal/mol; the corresponding ΔG for 1LQ7 is −4.6 Kcal/mol.

macrophages [3] = experiment: Quantification of phagocytosis of IgG-opsonized FITC latex beads by flow cytometry (in vitro macrophage activation test); type: cell-based; conditions: cells stimulated overnight, then 30' with FITC beads conjugated with IgG
Procedure: The present invention discloses a method for rapid, quantitative in vitro testing for macrophage activation. Phagocytosis is a cytoskeleton-dependent process of engulfment of large particles. Phagocytes use various surface receptors to bind and internalize the foreign particles for processing the pathogens in lysosomes (phagolysosomes) for presentation of antigens to the immune system. The effects of Gc-MAF with both positive and negative controls of phagocytosis are determined. As positive controls, macrophages are also stimulated with Beta-1,3 glucans, a well-known immune stimulator, for functional comparison. Specifically, curdlan, linear (1,3)-Beta-D-glucans are used. […] Once the cells are suspended in the culture medium, quantification of phagocytosis is accomplished by flow cytometry. One unique feature of flow cytometry is that it measures fluorescence per cell or particle. FIG. 8 illustrates the quantification of phagocytosis by flow cytometry. […] A FACSCalibur (FACS=Fluorescence Activated Cell Sorter) system (Becton Dickinson) equipped with an air-cooled argon ion laser (488 nm, 15 mW output) is used for this study. Forward light scatter (FSC) and 90° light scatter (SSC) were measured at 488 nm and fluorescence emissions (FL parameters) were collected using the FSC as the triggering signal. Fluorescence data was reported by CellQuest software (Becton Dickinson). […]

macrophages [4] = conditions: cited from earlier work

1LQ7: stable designed three-helix bundle scaffold from the Protein Data Bank, originally designed at the University of Pennsylvania (chain 1 GSRVKALEEKVKALEEKVKALGGGG; chain 2 RIEELKKKWEELKKKIEELGGGG; chain 3 EVKKVEEEVKKLEEEIKKL; not fully specified (N-terminus); also: helices are one chain joined by GGGG loops)
free energy of folding, ΔG (scaffold) [1]: -4.6 kcal/mol

MM1: 69 residue three-helix bundle peptide: scaffold 1LQ7 with both loops replaced by Gc-MAF Domain III loop; non-glycosylated analog, negative control (chain 1 Ac-GSRVKALEEKVKALEEKVKALGNAT; chain 2 PTELAKKKWEELKKKIEELGNATPT; chain 3 EVKKVEEEVKKLEEEIKKL-NH2; not fully specified (N-terminus); also: helices are one chain joined by the loops, non-glycosylated)
free energy of folding, ΔG ([2]; GdnHCl denaturation, 25° C., 10 mM potassium phosphate, pH 7.0, extrapolated to zero GdnHCl): -4.2 kcal/mol | free energy of folding relative to that of the original scaffold protein, 1LQ7 ([2]; difference from 1LQ7): ≤ 30% | aggregation state ([2]; helical content at room temperature and free energy of folding independent of concentration, corroborated by equilibrium sedimentation): monomeric

B1: Gc-MAF: serum glycoprotein macrophage activating factor, formed from Vitamin D Binding Protein by post-translation modifications (protein, UniProt P02774 17-474, looked up)
Vitamin D-binding protein: LERGRDYEKNKVCKEFSHLGKEDFTSLSLVLYSRKFPSGTFEQVSQLVKEVVSLTEACCAEGADPDCYDTRTSALSAKSCESNSPFPVHPGTAECCTKEGLERKLCMAALKHQPQEFPTYVEPTNDEICEAFRKDPKEYANQFMWEYSTNYGQAPLSLLVSYTKSYLSMVGSCCTSASPTVCFLKERLQLKHLSLLTTLSNRVCSQYAAYGEKKSRLSNLIKLAQKVPTADLEDVLPLAEDITNILSKCCESASEDCMAKELPEHTVKLCDNLSTKNSKFEDCCQEKTAMDVFVCTYFMPAAQLPELPDVELPTNKDVCDPGNTKVMDKYTFELSRRTHLPEVFLSKVLEPTLKSLGECCDVEDSTTCFNAKGPLLKKELSSFIDKGQELCADYSENTFTEYKKKLAERLKAKLPDATPTELAKLVNKHSDFASNCCSINSPPLYCDSEIDAELKNIL
modifications: deglycosylated macrophage activating form
mean fluorescence intensity (macrophages [3]; FL1 channel, non-stimulated control 543±149): 724±155 | percentage of cells positive to phagocytosis (M2) (macrophages [3]; non-stimulated control 43.6±10.3%): 57.5±6.6% | time to macrophage activation (macrophages [4]; enzymatically activated Gc-MAF given to Ehrlich ascite tumor-bearing mice): less than 6 hr | time to substantially increased initiation of antibody production (macrophages [4]; injection of Gc-MAF): ≤ 48 h
